How the values were obtained:
NB4 = assay: Annexin V-FITC flow cytometry, apoptosis of NB4; format: cell-based; conditions: Annexin V/PI
Method: FACS Calibur flow cytometry, U.S. Becton-Dickinson.Coompany. NB4, HL-60. rLZ-8 is prepared with IMDM culture medium containing 2% FCS into the preparation of 0.1 μg·ml^−1, 0.5 μg·ml^−1, 2.5 μg·ml^−1, arsenic trioxide (As2O3) 0.5 μg·ml^−1 AnnexinV-FITC kit: combining buffer solution 4×; Propidium iodide solution (PI), 20 μg·ml−1, 0.2 ml; recombinant human Annexin V/FITC, 0.1 ml.
Establish NB4 normal control group, positive drug group (As2O3 0.5 μg·ml^−1), protein low-dose group (0.1 μg·ml^−1), medium-dose group (0.5 μg·ml^−1), high-dose group, (2.5 μg·ml^−1); establish HL-60 normal control group, protein low-dose group (0.1 μg·ml^−1), medium-dose group (0.5 μg·ml^−1), high-dose group, (2.5 μg·ml^−1).
Mix NB4 and HL-60 cell into 24-orifice plate respectively, 1 ml/hole supply rLZ-8 in different concentrates, set 3-orifice multipunches for each group. Put them in 37° C., 5% CO2 incubator for 24 h, collect the cells of each concentrate, washes the cells twice with pre-cooled PBS 4° C., with 250 μl binding buffer solution re-suspending cells and regulates the cell density to 1×10^6/ml, taking out 100 μl to 5 ml streaming tube, and add 5 μl Annexin V/FITC and 10 μl 20 μg·ml^−1 PI solution, after mixing put it in room temperature and lucifuged hatching 15 min, add 400 μl PBS by flow cytometry analysis.

[1] = tested on: mouse peritoneal H22 tumor cells; assay: H22 ascites tumor inhibition experiment; format: in vivo, Mice
Method: Mouse hepatoma cell strain H22, offered by our laboratory.
Treatment after 24 h of vaccination. […] Daily weighing, observe the weight changes of mice, drawing weight growth curves.

WBC = assay: Cyclophosphamide low-leucocyte rat model, WBC; format: in vivo, rats; set-up: unit not given here
Method: rLZ-8 preparation of sterile saline. Divide them into 20 μg·kg^−1, 10 μg·kg^−1, 5 μg·kg^−1, 2.5 μg·kg^−1, 1.25 μg·kg^−1, 0.625 μg·kg^−1, 0.31 μg·kg^−1 dose groups.
Genlei™ Scimax™ [Recombinant human granulocyte colony-stimulating factor injection (rhG-CSF)], production lot: 20060403; 75 μg/vial is prepared with sterile normal saline into the preparation of 9.45 μg·ml^−1, 0.1 ml/vial.
Cyclophosphamide (CP), the production lot number 050216; 200 mg/vial is prepared with sterile normal saline into the preparation of 20 mg·ml^−1, 0.1 ml/vial, namely, 49 mg·kg^−1.
Normal control group, protein low-dose group, protein medium-dose group, protein high-dose group, positive control group (Genlei™ Scimax™)
Excluding the normal control group (given same normal saline), each group of rats were given tail vein injection of cyclophosphamide, 20 mg·ml^−1, 0.1 ml/vial, for 3 consecutive days. On 3rd day, rat tail venous blood sampling, sent to Jilin University First Hospital laboratory, cell analyze the number of WBC. After successful modeling, they were given to the above groups respective dose of rLZ-8 and positive drugs (Genlei™ Scimax™) treatment, the normal control group and CP groups were given same normal saline, on the 3rd, 7th and 14th day of the treatment to draw venous blood from rats tail respectively, sent to Jilin University First Hospital testing the numbers of WBC. Compare WBC changes before and after the treatment for analysis of drug efficacy.

B1: rLZ-8: Recombinant Ganoderma Lucidum Immune Regulatory Protein expressed in Pichia pastoris (protein, UniProt P14945 2-111, looked up)
Immunomodulatory protein Ling …: SDTALIFRLAWDVKKLSFDYTPNWGRGNPNNFIDTVTFPKVLTDKAYTYRVAVSGRNLGVKPSYAVESDGSQKVNFLEYNSGYGIADTNTIQVFVVDPDTNNDFIIAQWN
Apoptosis rate (NB4; NB4, rLZ-8 0.1 μg·ml−1, 24 h): 21.0%
Apoptosis rate (NB4; NB4, rLZ-8 0.5 μg·ml−1, 24 h): 22.3%
Apoptosis rate (NB4; NB4, rLZ-8 2.5 μg·ml−1, 24 h): 34.0%
growth of peritoneal H22 tumor cells (body weight curve) ([1]; rLZ-8 0.25-1 mg·kg^−1 tail venous injection, 10 days): inhibited the mouse peritoneal H22 tumor cells growth
survival of H22 ascites mice ([1]; rLZ-8 groups vs negative control group): survive longer than the negative control group
WBC, 3rdday of medication (WBC; rLZ-8 0.31 μg·kg−1): 1.9 ± 0.17
WBC, 7thday of medication (WBC; rLZ-8 0.31 μg·kg−1): 13.5 ± 0.13
WBC, 14thday of medication (WBC; rLZ-8 0.31 μg·kg−1): 11.0 ± 0.31
WBC, 3rdday of medication (WBC; rLZ-8 0.62 μg·kg−1): 5.2 ± 0.14
WBC, 7thday of medication (WBC; rLZ-8 0.62 μg·kg−1): 12.8 ± 0.74
WBC, 14thday of medication (WBC; rLZ-8 0.62 μg·kg−1): 12.1 ± 0.24
WBC, 3rdday of medication (WBC; rLZ-8 1.25 μg·kg−1): 2.8 ± 0.12
WBC, 7thday of medication (WBC; rLZ-8 1.25 μg·kg−1): 11.0 ± 0.47
WBC, 14thday of medication (WBC; rLZ-8 1.25 μg·kg−1): 10.3 ± 0.45
WBC, 3rdday of medication (WBC; rLZ-8 2.5 μg·kg−1): 1.7 ± 0.18
WBC, 7thday of medication (WBC; rLZ-8 2.5 μg·kg−1): 12.8 ± 0.11
WBC, 14thday of medication (WBC; rLZ-8 2.5 μg·kg−1): 10.6 ± 0.29
WBC, 3rdday of medication (WBC; rLZ-8 5 μg·kg−1): 2.6 ± 0.64
WBC, 7thday of medication (WBC; rLZ-8 5 μg·kg−1): 17.6 ± 0.23
WBC, 14thday of medication (WBC; rLZ-8 5 μg·kg−1): 11.2 ± 0.26
WBC, 3rdday of medication (WBC; rLZ-8 10 μg·kg−1): 1.6 ± 0.71
WBC, 7thday of medication (WBC; rLZ-8 10 μg·kg−1): 15.8 ± 0.33
WBC, 14thday of medication (WBC; rLZ-8 10 μg·kg−1): 10.9 ± 0.21
WBC, 3rdday of medication (WBC; rLZ-8 20 μg·kg−1): 1.6 ± 0.33
WBC, 7thday of medication (WBC; rLZ-8 20 μg·kg−1): 15.8 ± 0.13
WBC, 14thday of medication (WBC; rLZ-8 20 μg·kg−1): 9.8 ± 0.19
